Measurements taken from paper PMC10659539.
“And” between values parts separate entries of the source, which are not always exact repeats. Identical values can stand only once.

Experiments:
[1] = molecular target: GLT-1, transfected in HEK PS DKO cells (UniProt P31596); assay: cross-linking; living HEK PS DKO cells transfected with GLT-1 and empty vector or wildtype PS1; 50 μM DSS in PBS−/− for 30 min at room temperature, quenched with 20 mM glycine; lysed in 1% NP-40 + 0.1% Triton-X; SDS-PAGE and blot with anti-GLT-1
[2] = molecular target: GLT-1, transfected in HEK PS DKO cells (UniProt P31596); assay: native gel or EMSA; Blue Native PAGE of HEK PS DKO cells transfected with GLT-1 and pcDNA3.1-GFP or wildtype PS1, lysed with digitonin 5%; blot with anti-GLT-1

GLT-1, transfected in HEK PS DKO cells (from UniProt P31596 1-573) (natural protein)
stoichiometry N [1]: 2 and 3
GLT-1 multimers as percent of total GLT-1, with co-expressed PS1 [2]: 95.6%
GLT-1 multimers as percent of total GLT-1, without PS1 [2]: 89.7%
stoichiometry N [2]: 2 and 3
